Results published in the DeepSol protein solubility set.

test: soluble on expression in E. coli; label from the status in PepcDB or PDB records

Sequence	soluble on expression in E. coli
MSLSRSLSECIDQGRGLVPADLVLKHGRVFDLVTGELVQTDVAICGDRIVGTFGTYTGRREIDCRGRILVPGFIDTHLHVESSLVTPFEFDRCVTPRGITTAICDPHEIANVCGLEGIRYFLEASAHLVMDLRVQLSSCVPSTHMETAGAALEAKDLAPLMDHPRVIGLAEFMNFPGVLMKDPGCMAKLEAFRGRHIDGHAPLLRGKDLNGYIAAGIRTEHEATTAEEALEKLRKGMRVLIREGSVSKDLHALVSILTERHAPYLCLCTDDRNPLDIAEHGHIDHMIRTAIRLGAPPLAVYRAASLSAADAFGLKDRGLIAPGRRADIAVLDSLEGCHAALVLAGGVVADDAAFSARSDIEPVARASVKVAEIAPEAFRCPGNRADTPVIGILPGKIITEHLTAEIEPVDGDKRPDPVRDLARIAVIERHGKTGGRATGFVRGFGMARGAIASTVCHDHHNLAVVGIDYADMALAANRLRALEGGFAVAAGGEILAELALPVGGLMSLRPFEEVRDALVTLREAARSLGVTLEEPFLQLAFLALPVIPHLKITDRGMVDVDRFEILEGHHHHHH	soluble
MGSDKIHHHHHHMIRYPVLKEGATIGVTAPSSGVPKDLHDLVKAACERMEERGFRVVCGETVWTQEKAKSSEAKKRATELQAMMEDDAIDLMIPPWGGQLLIEVLQFLDFEQWEPKWILGYSDTSLLLLAITLNTGIATAHGTNLVDLRGEYSDDTTAMWQPVLSTKIGDSIVQHSSKKYQKEWDFERPTPCVFHLTEKTKWQGVPKQTLSINGRLLGGCIDVIRHLIGTPYGDVTRFQADVIKGAPIIWFFENCELTTTDLRRTLVQMKLAGWFDHCSGIMFGRSPTNTPVEDYTVDDVFRDLYEELKVPLMTDIDCGHVPPQLTLINGAYAEVKLNDGKGIVTQFFKE	not soluble
MGSDKIHHHHHHMQVGDRIVVRQEEFDTIGHVLSVDPLIVRPHARGGLPSNAEPVRIDNPLMIKRLSPRTVRNADIRAIEVATAKAFPGIEHTWCGQWLLRAGDGVTERSNSAAPLGPQALFTPVPYEEIKEFYRRHNLPALILVPERIAPAIPDDGPEIIVMTHPLDNVSEIDDVHAEFLDQPDDDWLELYHFRGKALPRHALELLRTTIDGRMCFGRLKRDGKTVAITRGTITDGYLGYSAVEVAPEYRRQGLATELGAAMLAWGKAHGAHTAYLQVIESNAAGIGLYHKLGFVEHHRHKYVRVS	not soluble
NGGVGVDVELITSINVENDTFIERNFTPQEIEYCSAQPSVQSSFAGTWSAKEAVFKSLGVKSLGGGAALKDIEIVRTNKNAPAVELHGNAKKAAEEAGVTDVKVSISHDDLQAVAVAVSTKK	soluble
MSLATIATLRVLLLAIPDDAAPESDLNLVSWTILNGLRRECERRGIRIVPFVSTGRRIDGAQVRQMALAERADGIVVLNDDQPELIRSLASPDMPVVIVNGEDPAMLVDTVTPENRFGARLGIEHLLALGHRRILHLTWKGRTTIQRRYDGFSDAYLAAQLPVPDNMVVEAEGYEPRHGEAAINALLDRDATVKGATAVFCAADNMALGCLKALADRDIRVPEAISVLGFDDIVPGEFSRPPLSTVSVPTDKLGAAALALIEQRLIANDPQRPAHRLELGCHLVLRGSEGHHHHHH	not soluble
GAMGSKISNIFEDVEFCVMSGTDSQPKPDLENRIAEFGGYIVQNPGPDTYCVIAGSENIRVKNIILSNKHDVVKPAWLLECFKTKSFVPWQPRFMIHMCPSTKEHFAREYDCYGDSYFIDTDLNQLKEVFSGIKNSNEQTPEEMASLIADLEYRYSWDCSPLSMFRRHTVYLDSYAVINDLSTKNEGTRLAIKALELRFHGAKVVSCLAEGVSHVIIGEDHSRVADFKAFRRTFKRKFKILKESWVTDSIDKCELQEENQYLI	soluble
HMTPQDHEKAALIMQVLQLTADQIAMLPPEQRQSILILKEQIQKSTGAP	soluble
MRIGLFGGSFDPIHLGHLLAASQAQEVLCLDRVLFVVAARPPHKVPVAPAEARYEMTLLAVAEDPRFTVSRLELDRPGPSYTVDTLREARRLFPQDELFFITGADAYRDVLTWKEGERLPEYATLVAVARPGYPLEEAPLPVVPLFVPEVGISSTEIRRRLKEGRSVRYWVPRAVEVYIEKHGLYR	soluble
MGSDKIHHHHHHMNSINKNQPEKNHEDLKNKDSIDKIIELASDQTCFLCTTQGAKGNARPMAVQKVDKQGNIWFLSASDSNQNKEIQENSSVNLYFKGNQHSDFMHLYGEATVLRDETIIKELWNPVLKTWFTEGENDPRITIIKFTTKEGYYWDTKHGNFIAGIKMLIGAATGQTLDDSIEGSLQNQPVHNTHISHG	not soluble
MEHTIAVIPGSFDPITYGHLDIIERSTDRFDEIHVCVLKNSKKEGTFSLEERMDLIEQSVKHLPNVKVHQFSGLLVDYCEQVGAKTIIRGLRAVSDFEYELRLTSMNKKLNNEIETLYMMSSTNYSFISSSIVKEVAAYRADISEFVPPYVEKALKKKFK	not soluble
MIYIGLPQWSHPKWVRLGITSLEEYARHFNCVEGNTTLYALPKPEVVLRWREQTTDDFRFCFKFPATISHQAALRHCDDLVTEFLTRMSPLAPRIGQYWLQLPATFGPRELPALWHFLDSLPGEFNYGVEVRHPQFFAKGEEEQTLNRGLHQRGVNQVILDSRPVHAARPHSEAIRDAQRKKPKVPVHAVLTATNPLIRFIGSDDMTQNRELFQVWLQKLAQWHQTTTPYLFLHTPDIAQAPELVHTLWEDLRKTLPEIGAVPAIPQQSSLF	soluble
MRGSHHHHHHTDPALRAKKIPCVMMRGGTSRGAFLLAEHLPEDQTQRDKILMAIMGSGNDLEIDGIGGGNPLTSKVAIISRSSDPRADVDYLFAQVIVHEQRVDTTPNCGNMLSGVGAFAIENGLIAATSPVTRVRIRNVNTGTFIEADVQTPNGVVEYEGSARIDGVPGTAAPVALTFLNAAGTKTGKVFPTDNQIDYFDDVPVTCIDMAMPVVIIPAEYLGKTGYELPAELDADKALLARIESIRLQAGKAMGLGDVSNMVIPKPVLISPAQKGGAINVRYFMPHSCHRALAITGAIAISSSCALEGTVTRQIVPSVGYGNINIEHPSGALDVHLSNEGQDATTLRASVIRTTRKIFSGEVYLPGLCGR	soluble
MTTLTLNTSLLSSRRILAAFSGGLDSTVLLHQLVLWRERHPDVTLRAIHIHHGLSPHADSWVRHCETVCERWQVPLVVERVTLADNGLGIEAHAREARYRAFAQTLLPGEVLATAQHLDDQCETFLLALKRGSGPAGLSAMGERSPFAGTLLLRPLLRETRKTLEQWAVRHGLCWIEDESNQDDAYDRNFLRLRALPLLQQRWPHFPAAVARSATLCAEQERLLDELLASDLTDCITAEGTLRLSPLMSMSDVRRAAILRRWLAMRNAPMPSRDALERIWQEVALARDDASPCLRFGDHEIRRYQSQLWWIKSVAGQHETTVAWPVWQTPLALPAGLGTVQLVPGGELRRPREEESVSIRFKAPGVLHIVGRNGGRKLKKIWQEQGIPPWRRDTTPLLFYGETLIAAAGVFVTREGAAEDKEGVSLVWHA	not soluble
MAAMFSNTRSVASSSGHIVEFKAGRSRLEAGSGDTMRKVVAEPKKGLVFIKQSNDMLIHFCWKDRETGAVVDDLIIFPDDAEFKAVPGCPDGKVYMLKFKSGDMKLFWIQDSTPDVDKDLVKKVTDALNKPPTSRPAASRSAGSNANTDRQSAGGSLISSSDMNAPLGGIDQGQLMSLIQSLQGGNSDTLPISSVPRGEDASSEADCEPSTNAAEEGSSNPLSLNNPAIQQIFNNLGRSQKKEVAVSLATALSNETVAEVARNHAEELAPHLPTSDDPARELSETVRTPQFRQAADTLGHALQTGQLGPVVAQFGMDEATVGSANQGDIRGFAANLTKAEGGEDAAKTQNSDDDATREPEPKRNRPDNEDMDVD	not soluble
MGSDKIHHHHHHMPSPIDLHSHSTVSDGLLAPEALVAHAAEQGVKVLSLTDHDDTSGLAPAASAAAGHGMEFINGVEISVTWRRKTIHVVGLRVDPDHGPLREGLEKIRAGRHLRAENIAASLEKFGIKGSLEGAYAHARQGIIGRAHFARYLIDQGYASNMKAIFKRYLVKGKPGYVEHHWATLEEVVAWINGSGGVAVLAHPGRYDIGRSNMLLLLEEFRNLGGTAIEVVTGSHNADQFQEYAKLAHMFGLKSSMGSDYHGPGHGNIEMGRLPDLPRGCIPVWQDWPEIRSLNN	not soluble
MFYLGIDAGGTKTSFMLINHLGEVLSTYTSGTCHIHQVGFDGFRKGIQEGIDKICSEINICRDDLSYSFLGLPAYGENESEKLKMNSIIAEILGENKFSCGNDVEVALAGSLAGQPGICIILGTGAIASGITNDLKTARTSGWGYICGDEGSGYWIAKKGVEIFGKQSDHRLERTALYDIFKNELKLENDFDLIFLIKDKYKQDRTKVANLAMLVYKAALKGDKYALDIYRQAAKECLLMVNGLTNQLEFTGVLNISYSGSVFNSKEFILDPLRNYLQDNYTAFNLTAPILPPIKGAALNALKLHKGEIPEGVVHNLAKEPKEILVLEHHHHHH	not soluble
MGSDKIHHHHHHMKMNWTGAAHQLNKQGKAYVIATIVGVTGSTPRNSGTKMVITHDDIFDTIGGGHLEHKVIKHAHQLLMAGDDCQQLEHFQLGAQLGQCCGGNASVLFESFSASGVNIMLFGAGHVGKALMPILAGLPCSITWVDSRADQFPDDAGNYHNVTTLVSENPAEEVALMPTNSYYIVMTHNHQLDFEISHNTLKRADFAYLGLIASDTKWRRFQQRFQHRDIAKSLVEKMNCPIGLPQVQGKLPMEVAVSVAGEIIQLYQAELASQALANPSANKQKDAKPQSTKQGIAWQELKSLMTEEVS	not soluble
MLEDMSKDALFYNYYAQWIEVYKKDAIREATMAKYRMTQKWVEKLAPELKVCELTRTAYQKILNDYAKEHERQTTLDFHHQLKGAVMDAVDEGLIERDPTRKAIIKGKTPREKKIKYLNQFELHTLIADLDIKEEPNWDWFILLVAKTGMRFSEALAITPKDFDFGRQTLSISKTWDYKGKGGFLPTKNKSSVRKIQIDWQIVVKFSELIKGLPEDEPIFVGEEKIYNSTVNDALTRHCKACGISEISIHGLRHTHASLLLFAGVSIASVARRLGHASMTTTQKTYLHIIQELENKDVDLVMRTLSGL	soluble
MKVMLSLFKRESIKGITMKKSTLLNSELSYLVATLGHTDEITICDAGLPIPDEVTRIDLALTHGVPSFLETVRVILSESQIESVIVAQEFAQVSPVLHEALYRELKAEEQLCGKPIAIQYISHEAFKQRTLQSRAVVRTGECTPYANVIFQAGVVF	not soluble
MFVIGIPTLNEADNISRLVKQIDEYAVNLGKEIIIINSDSKSTDGTPQIFLETKTYNTKVSIVSEAKGKGYNVRNIFEYAINHVPNFSGLILIDGDVVSMKKMWLEKMFIAIESGNDLIIPNYARKSFEGNATNHFIYPMLVKIFKRDMPYQCISGDFGFSRGLIKDLTLKCNWHKYTLGYGIDIFLTLTAILKSYKIKEIDLQSKIHKKSFEKIEKIFLEVSQSFFETINDNSLNQDKLRLNINFESHSRQFIKSSDILSSNDIENLKLRALFLLQEEKQYLHGLSEVEWDGILSNTINNIYRYSSEEHSLYLLPLYLLRVYNYLKYN	not soluble
MKPLRSPWVMRALARFFSGYIALTYKTLRWTREGQAIADRVQAEALASGGGAILALWHSRVPVGPATWPQGPDKPEIRVLVSQSRDGEFIARVIARLGLPSIRGSSLKKTDTAKNKGGEQAFRDMVKWVKDGGAMAITPDGPRGPVEVMQKGAVALARVSGAPVLFVGVAVNPCIRLKTWDRTIIPLPFAKAAMVWDGPVHAGRDDDPDAVVEAWGARLSAVSRRAEAIVGETPPKDLEHHHHHH	not soluble
